# US11285285B2, “Systems and methods comprising a droplet delivery device and a breathing assist device for therapeutic treatment” (PNEUMA RESPIRATORY, INC., priority 2016, dated 2022)
# Columns and labels:
# Format in all cases: physicochemical
# [1] = Enbrel stability after aerosol generation, size exclusion chromatography (SEC)
# Excerpt: Size Exclusion Chromatography (SEC): Alternately, to determine the stability of active agent after droplet generation, the generated stream of droplets including the active agent may be collected and […] may be employed to monitor for any changes in large molecule aggregation and protein fragment content. Soluble protein aggregates and protein fragment content may be calculated by comparing respective peak area under the SEC-HPLC curve of dispensed protein solutions with controls (solutions remaining in the device reservoir). Drug solutions for testing include Enbrel, (ENBREL® single-use prefilled syringes in 25 mg (0.51 mL of a 50 mg/mL solution of etanercept), and insulin, (Humalog, 200 units/ml, 3 ml […] is performed with a YarraTM 3 um SEC-2000 LC column 300×7.8 mm, SecurityGuard cartridge kit and SecurityGuard cartridges GFC-2000, 4×3 mm ID. Fifty microliters of Enbrel from the syringe (ENBREL® single-use prefilled syringes in 25 mg/0.51 mL of a 50 mg/mL solution of etanercept) is diluted (4:1) (4 parts, 200 mcl of the mobile phase buffer solution to 1 part, 50 mcl Enbrel from syringe). Fifty microliter of the diluted Enbrel is injected and separation was performed at a flow rate of 1.0 ml/min. The mobile phase buffer system included a PHOS. BUFF. SALINE. […] UV detection is performed at 280 nm. […] An ampule/cartridge is filled with either 0.20 ml of Enbrel® (50 mg/ml) diluted 4:1 (10 mg/ml)(4 parts (200 mcl) of PBS and 0.025% NaN3 and 1 part (50 mcl of Enbrel solution from the syringe). After 20 actuations and aerosolization, about 150 mcl of the aerosolized Enbrel solution is recovered and collected in the polypropylene tube located below the ejector mechanism. The control consists of the diluted Enbrel solution, 50 mcl of which is injected into the SEC column for analysis.
# [2] = Gel electrophoresis of active agent after droplet generation
# Excerpt: Gel Electrophoresis: To determine the stability of active agent after droplet generation, the generated stream of droplets including the active agent is collected and the molecular weight of the active agent is verified using gel electrophoresis.
# [3] = Insulin stability after aerosol generation, size exclusion chromatography (SEC)
# Excerpt: Size Exclusion Chromatography (SEC): Alternately, to determine the stability of active agent after droplet generation, the generated stream of droplets including the active agent may be collected and SEC-HPLIC may be employed to monitor for any changes in large molecule aggregation and protein fragment content. Soluble protein aggregates and protein fragment content may be calculated by comparing respective peak area under the SEC-HPLC curve of dispensed protein solutions with controls (solutions remaining in the device reservoir).
# Drug solutions for testing include Enbrel, (ENBREL® single-use prefilled syringes in 25 mg (0.51 mL of a 50 mg/mL solution of etanercept), and insulin, (Humalog, 200 units/ml, 3 ml kwikpens)
# To calculate and compare effects of droplet generation through an ejector mechanism of the disclosure, the total area under the curve of the UV signal at 280 nm versus elution time for controls is compared with the aerosolized samples, which is set to 100%.
# Aerosol collection and SEC is performed in a similar fashion as for the Enbrel analysis and aerosol collection.
# Fifty microliters of the collected aerosol spray is injected onto the SEC column for analysis, while 50 mcl of the Kwikpen insulin solution is injected onto the SEC column for control samples.
# [4] = Anderson Cascade Impactor testing of Albuterol sulfate aerosol from the droplet delivery device (Example B); conditions: Albuterol 0.5%, 28.3 lpm, 10 actuations
# Method: Droplet size distribution and related functionality was evaluated for exemplary droplet delivery devices of the disclosure, including Anderson Cascade Impactor testing, total drug mass output rates, total drug respirable mass, delivery efficiencies and reproducibility.
# The study was designed to evaluate device performance of a single Pneuma™ inhaler. A series of three (3) individual tests were conducted with a new disposable drug cartridge for each test. The testing platform utilizes an eight-stage nonviable Anderson Cascade Impactor (Thermo Fisher Scientific; Waltham, Mass.) equipped with a calibrated AALBORG model GFM47 mass flow meter (AALBORG Instruments and Controls; Orangeburg, N.Y.) for flow rate measurement.
# At the conclusion of each test, the mouthpiece was rinsed with mobile phase and collected for HPLC analysis to determine the mass fraction of non-respirable aerosolized drug captured in the mouthpiece via inertial filtering. Following each test, impactor stage samples were extracted and recovered in solvent and analyzed for the active pharmaceutical ingredient (API) using a Dionex Ultimate 3000 nano-HPLC with UV detection (Thermo Scientific, Sunnyvale, Calif.).
# The cascade impactor testing procedure involved fitting the mouthpiece into the Impactor USP throat with a mouthpiece connection seal. The vacuum pump supplying sample air flow to the cascade impactor was turned on and the pump control valves adjusted to supply 28.3 L/min total flow through the impactor and inhaler body during aerosol tests.
# The device was connected to the impactor USB throat, turned on, and actuated ten (10) times for each test. At the conclusion of the test period, the device, impactor, and dilution air sources were turned off. The i mouthpiece was rinsed in order to extract drug, and all stages of the cascade impactor were rinsed with a quantity of appropriate solvent (HPLC mobile phase). Extracted samples were placed in labeled and sterile HPLC vials, capped, and analyzed for drug content via HPLC with UV detection. The mouthpiece was extracted of residual drug and analyzed for drug content via HPLC to measure mouthpiece drug deposition in relation to the total collected on the impactor stages.
# All system flow rates and impactor sample flows were monitored throughout each test period. Following each test, the impactor slides were placed in labeled sterile Petri dishes, and impactor stages were extracted of drug using 2 ml of mobile phase applied with a calibrated micropipette. All extracted samples from the mouthpiece and impactor were placed in labeled sterile amber HPLC sample vials, and stored refrigerated at approximately 2° C. until HPLC analysis.
# Impactor collection stages for all tests were rinsed with DI water and ethanol, and air dried prior to each inhaler test trial to avoid contamination. A new inhaler drug cartridge was used for each of the three individual tests.
# All drug content analysis was performed using a Dionex Ultimate 3000 nano-HPLC equipped with a Dionex UVD-3000 multi-wavelength UV/VIS Detector using a micro flow cell (75 um×10 mm path length, total analytical volume 44.2 nl). […] Total HPLC run time was 6 minutes per sample with approximately 5 minutes flush between each sample. Sample injection was performed with a 1 μl sample loop in full loop injection mode.
# Buffer formulation contains reverseosmosis filtered deionized water with 1.13 gr of sodium 1-hexanesulfonate (Alfa Aesar) in 1200 ml of water, with 2 ml glacial acetic acid (Acros Organics) added. The mobile phase solution was mixed and filtered through a 0.45 um filter membrane. The final mobile phase is a 60:40 dilution of Buffer:MEOH.
# [5] = average of Aerosolized S1 and S2
# [6] = control (diluted Enbrel 10 mg/ml, not aerosolized), SEC UV 280 nm
substance,measurement,setting,value
etanercept [Enbrel],"Peak 4 area, Avg.",[1]; [5],0.3545
same,"Peak 5 area, Avg.",[1]; [5],4.2755
same,"Peak Area %, Peak 4",[1]; [6],0%
same,"Peak Area %, Peak 5",[1]; [6],0%
same,dose that leads to formation of molecular fragments,[1]; fragments with elution times of 13 and 25 minutes,4.6%
same,change in the electrophoretic mobility (molecular weight) of post-aerosol active agent versus control,[2],negligible change in the electrophoretic mobility
"Insulin: insulin, Humalog, 200 units/ml, 3 ml kwikpens",ejected dose that is structurally unchanged,[3]; aerosolized with test device,97.5%
same,"Peak 3 area, Avg.",[3]; [5],2.4905
same,"Peak Area %, Peak 3","[3]; control (Kwikpen insulin solution 200 U/ml, not aerosolized), SEC",0%
same,ejected dose that forms a fragment,[3]; fragment which elutes at ~25 minutes,2.5%
Albuterol sulfate,Fine Particles (<0.4 um),[4]; Anderson Cascade,31.0 µg
same,Fine Particule Fraction (<0.4 um),[4]; Anderson Cascade,3.5%
same,droplets of an average diameter of less than about 4 μm,[4]; Anderson Cascade,over 70%
same,Cum. % <,[4]; FILTER,0.00%
same,Cum. % >,[4]; FILTER,100.00%
bevacizumab,change in the electrophoretic mobility (molecular weight) of post-aerosol active agent versus control,[2],negligible change in the electrophoretic mobility
adalimumab,change in the electrophoretic mobility (molecular weight) of post-aerosol active agent versus control,[2],negligible change in the electrophoretic mobility
